Results taken from PMC10681739, “High-throughput data and modeling reveal insights into the mechanisms of cooperative DNA-binding by transcription factor proteins”.

T1: ETS1 x2 (Homo sapiens, UniProt P14921)
T1 sequence: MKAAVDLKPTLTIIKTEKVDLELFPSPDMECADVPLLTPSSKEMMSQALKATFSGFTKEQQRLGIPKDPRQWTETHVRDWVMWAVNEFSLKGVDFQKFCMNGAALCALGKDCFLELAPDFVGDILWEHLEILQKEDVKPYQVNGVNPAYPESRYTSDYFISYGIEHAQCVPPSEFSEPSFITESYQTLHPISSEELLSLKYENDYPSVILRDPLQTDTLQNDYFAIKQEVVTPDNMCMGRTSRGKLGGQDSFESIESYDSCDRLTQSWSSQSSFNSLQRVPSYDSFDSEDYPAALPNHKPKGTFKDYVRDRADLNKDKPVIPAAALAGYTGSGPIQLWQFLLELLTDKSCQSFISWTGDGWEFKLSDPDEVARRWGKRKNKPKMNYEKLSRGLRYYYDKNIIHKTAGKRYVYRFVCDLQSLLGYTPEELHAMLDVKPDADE


Molecular target: T1, ETS1 x2
Experiment: gcPBM; 10 nM ETS1
Details: tags: N-terminal GST (pDEST15), kept (PMC6008103); chain copies: 2; label: surface-attached array probe

Row | Binder | binding signal
1 | Table S4 A row 2364 (dsDNA) DNA 1: GTGGGGCTTCCTGCCGCAGAGCCGCCTTCCGCCCTC DNA 2: GAGGGCGGAAGGCGGCTCTGCGGCAGGAAGCCCCAC | 17300 PBM fluorescence, median of replicate spots
2 | Table S4 A row 2310 (dsDNA) DNA 1: CATACGGCGCCACCGGAAGTTCCGGCAAGTGGGCCC DNA 2: GGGCCCACTTGCCGGAACTTCCGGTGGCGCCGTATG | 18500 PBM fluorescence, median of replicate spots
3 | Table S4 A row 916 (dsDNA) DNA 1: ACTGCAGATCCCCTTCCTGTTTCCTTTGCTCTCCTG DNA 2: CAGGAGAGCAAAGGAAACAGGAAGGGGATCTGCAGT | 6260 PBM fluorescence, median of replicate spots
4 | Table S4 A row 1254 (dsDNA) DNA 1: TGAAAATGAGCATTTCCTGTTTCCTCAGGCATTTCT DNA 2: AGAAATGCCTGAGGAAACAGGAAATGCTCATTTTCA | 31500 PBM fluorescence, median of replicate spots
5 | Table S4 A row 323 (dsDNA) DNA 1: TCCATGACCCCATTTCCGCTTCCTACAGGTGAGTGT DNA 2: ACACTCACCTGTAGGAAGCGGAAATGGGGTCATGGA | 21500 PBM fluorescence, median of replicate spots
6 | Table S4 A row 2224 (dsDNA) DNA 1: GCACTTCCGCCAGAAGCCGGGTGTGTCCTTCCGGGC DNA 2: GCCCGGAAGGACACACCCGGCTTCTGGCGGAAGTGC | 49200 PBM fluorescence, median of replicate spots
7 | Table S4 A row 842 (dsDNA) DNA 1: GGGTGGCCCAGGCTTCCGCTTCCTGCCCACATACCC DNA 2: GGGTATGTGGGCAGGAAGCGGAAGCCTGGGCCACCC | 10900 PBM fluorescence, median of replicate spots
8 | Table S4 A row 1203 (dsDNA) DNA 1: GGAGCGGAAGCCCTTTACACTACGGTGTTTCCGGCT DNA 2: AGCCGGAAACACCGTAGTGTAAAGGGCTTCCGCTCC | 5440 PBM fluorescence, median of replicate spots
9 | Table S4 A row 2202 (dsDNA) DNA 1: AGGGCGATTTCCGCTTTGTCGCGTTTCCTCAAGGCT DNA 2: AGCCTTGAGGAAACGCGACAAAGCGGAAATCGCCCT | 37800 PBM fluorescence, median of replicate spots
10 | Table S4 A row 57 (dsDNA) DNA 1: ACTGGAGAACAGGAAATAGCAGGAAACGTCACCTAC DNA 2: GTAGGTGACGTTTCCTGCTATTTCCTGTTCTCCAGT | 13600 PBM fluorescence, median of replicate spots
11 | Table S4 A row 1450 (dsDNA) DNA 1: CTCCCACTTCCTTCCTGTGCGGGGAAGAAAACTGCC DNA 2: GGCAGTTTTCTTCCCCGCACAGGAAGGAAGTGGGAG | 25000 PBM fluorescence, median of replicate spots
12 | Table S4 A row 2168 (dsDNA) DNA 1: CCGGCCTTCCACTTCCGGCGCGGAAGTTGGCGTCAC DNA 2: GTGACGCCAACTTCCGCGCCGGAAGTGGAAGGCCGG | 44800 PBM fluorescence, median of replicate spots
13 | Table S4 A row 822 (dsDNA) DNA 1: AGCAGCTCAACAGGAAATACATCCTTTTCTGGTTGA DNA 2: TCAACCAGAAAAGGATGTATTTCCTGTTGAGCTGCT | 11900 PBM fluorescence, median of replicate spots
14 | Table S4 A row 2376 (dsDNA) DNA 1: CCCAGAGCCAATTTTCCACTTCCGCTTCCGGCGCTG DNA 2: CAGCGCCGGAAGCGGAAGTGGAAAATTGGCTCTGGG | 15700 PBM fluorescence, median of replicate spots
15 | Table S4 A row 215 (dsDNA) DNA 1: GGGCCCCAGCTTCCTCTCTGCCTTCCGCCGCCCGCT DNA 2: AGCGGGCGGCGGAAGGCAGAGAGGAAGCTGGGGCCC | 6960 PBM fluorescence, median of replicate spots
16 | Table S4 A row 1679 (dsDNA) DNA 1: AGTGTTCACTTCCTGCCCTCCCATTTCCTGAAGGTC DNA 2: GACCTTCAGGAAATGGGAGGGCAGGAAGTGAACACT | 35600 PBM fluorescence, median of replicate spots
17 | Table S4 A row 2128 (dsDNA) DNA 1: CCGGCCCGCAGCCGGAACCGGAAATGCCCTTAGGGA DNA 2: TCCCTAAGGGCATTTCCGGTTCCGGCTGCGGGCCGG | 17000 PBM fluorescence, median of replicate spots
18 | Table S4 A row 1887 (dsDNA) DNA 1: CACTCAGGAAGTAGGTCAGGAGGAGATATCCTGTGT DNA 2: ACACAGGATATCTCCTCCTGACCTACTTCCTGAGTG | 6420 PBM fluorescence, median of replicate spots
19 | Table S4 A row 2352 (dsDNA) DNA 1: CGCCGCTGACACCGGAACCGGAAACTTCATCAGGAG DNA 2: CTCCTGATGAAGTTTCCGGTTCCGGTGTCAGCGGCG | 6600 PBM fluorescence, median of replicate spots
20 | Table S4 A row 1964 (dsDNA) DNA 1: CCACGGTGGTGACTTCCTTTTCCGCTCCCCTACACA DNA 2: TGTGTAGGGGAGCGGAAAAGGAAGTCACCACCGTGG | 7690 PBM fluorescence, median of replicate spots
21 | Table S4 A row 1913 (dsDNA) DNA 1: AAATAACAGAAAGGAAATACATCCTGCCAGTTAACA DNA 2: TGTTAACTGGCAGGATGTATTTCCTTTCTGTTATTT | 8690 PBM fluorescence, median of replicate spots

Row | Binder | binding signal
22 | Table S4 A row 2195 (dsDNA) DNA 1: TGAAGAAGCACCGGAAATGCTTCCGATCGCTTCATA DNA 2: TATGAAGCGATCGGAAGCATTTCCGGTGCTTCTTCA | 40400 PBM fluorescence, median of replicate spots
23 | Table S4 A row 2246 (dsDNA) DNA 1: AAAGCACGACCTTCCGGGACCGGAAGTGCCGGTCGA DNA 2: TCGACCGGCACTTCCGGTCCCGGAAGGTCGTGCTTT | 28900 PBM fluorescence, median of replicate spots
24 | Table S4 A row 255 (dsDNA) DNA 1: CTGGAGGCAGGCTTCCTGTGCTTCCTGTAGGTGACA DNA 2: TGTCACCTACAGGAAGCACAGGAAGCCTGCCTCCAG | 9790 PBM fluorescence, median of replicate spots
25 | Table S4 A row 314 (dsDNA) DNA 1: TTGGGAGGCACAGGAAGACCGGATGTGGTTTAAGAA DNA 2: TTCTTAAACCACATCCGGTCTTCCTGTGCCTCCCAA | 12700 PBM fluorescence, median of replicate spots
26 | Table S4 A row 2460 (dsDNA) DNA 1: GGCTGGAAGGCACTTCCGGCGGAAGTTAGAGCTGGG DNA 2: CCCAGCTCTAACTTCCGCCGGAAGTGCCTTCCAGCC | 42900 PBM fluorescence, median of replicate spots
27 | Table S4 A row 809 (dsDNA) DNA 1: GCTTGGGTGTTTCCTGTGCTGCTTCCTCTCCAACCT DNA 2: AGGTTGGAGAGGAAGCAGCACAGGAAACACCCAAGC | 23300 PBM fluorescence, median of replicate spots
28 | Table S4 A row 954 (dsDNA) DNA 1: GGTATACAGGAAACCCAGAGAGACAGGAAATGTCTC DNA 2: GAGACATTTCCTGTCTCTCTGGGTTTCCTGTATACC | 5630 PBM fluorescence, median of replicate spots
29 | Table S4 A row 1991 (dsDNA) DNA 1: GCGCGCACCCTCCTTCCGGCATCCGTAGAACCCCCG DNA 2: CGGGGGTTCTACGGATGCCGGAAGGAGGGTGCGCGC | 15100 PBM fluorescence, median of replicate spots
30 | Table S4 A row 305 (dsDNA) DNA 1: GCCGCTTCCTGTTCAGAGGACAGACAGCTTCCTGAC DNA 2: GTCAGGAAGCTGTCTGTCCTCTGAACAGGAAGCGGC | 61600 PBM fluorescence, median of replicate spots
31 | Table S4 A row 1614 (dsDNA) DNA 1: GTTCTTCGACCCGGATGCGCTTCCTAATAAAACGGC DNA 2: GCCGTTTTATTAGGAAGCGCATCCGGGTCGAAGAAC | 5240 PBM fluorescence, median of replicate spots
32 | Table S4 A row 189 (dsDNA) DNA 1: CACTTTCTGAAGAGGAAACAGGAAGTGTGTTTCATA DNA 2: TATGAAACACACTTCCTGTTTCCTCTTCAGAAAGTG | 8380 PBM fluorescence, median of replicate spots
33 | Table S4 A row 557 (dsDNA) DNA 1: TTGACATCCTGCTCTCCTGTGACTTTGCTTCCTGTT DNA 2: AACAGGAAGCAAAGTCACAGGAGAGCAGGATGTCAA | 20500 PBM fluorescence, median of replicate spots
34 | Table S4 A row 763 (dsDNA) DNA 1: GGGCAACTTCCGCGACCTCTACCACATCCTTGAGAA DNA 2: TTCTCAAGGATGTGGTAGAGGTCGCGGAAGTTGCCC | 19000 PBM fluorescence, median of replicate spots
35 | Table S4 A row 1340 (dsDNA) DNA 1: TTGAGGCCCAGACCGGAACTTCCTTTCGGCCTCAGT DNA 2: ACTGAGGCCGAAAGGAAGTTCCGGTCTGGGCCTCAA | 5800 PBM fluorescence, median of replicate spots
36 | Table S4 A row 2476 (dsDNA) DNA 1: TGTGCCGTAGCATTTCCGGCGGAAGTTGCTGGGCGC DNA 2: GCGCCCAGCAACTTCCGCCGGAAATGCTACGGCACA | 26900 PBM fluorescence, median of replicate spots
37 | Table S4 A row 1689 (dsDNA) DNA 1: TGCCCGGATGTTGAGGTCTGGTTGGCATTTCCTGTG DNA 2: CACAGGAAATGCCAACCAGACCTCAACATCCGGGCA | 9040 PBM fluorescence, median of replicate spots
38 | Table S4 A row 634 (dsDNA) DNA 1: AGACAGACACTGCTTCCTGCTTCCTAATGGCCGATC DNA 2: GATCGGCCATTAGGAAGCAGGAAGCAGTGTCTGTCT | 10500 PBM fluorescence, median of replicate spots
39 | Table S4 A row 2457 (dsDNA) DNA 1: TGCAGCTAACTACTTCCGCTTCCGCTTGCGTCCCCT DNA 2: AGGGGACGCAAGCGGAAGCGGAAGTAGTTAGCTGCA | 24300 PBM fluorescence, median of replicate spots
40 | Table S4 A row 2250 (dsDNA) DNA 1: CTGACAGACCCGGAAATAAGAGGAAACCACACACTT DNA 2: AAGTGTGTGGTTTCCTCTTATTTCCGGGTCTGTCAG | 8250 PBM fluorescence, median of replicate spots
41 | Table S4 A row 1898 (dsDNA) DNA 1: CCACCGGAAGACCTCAGTCATGTGGGTTTTCCGGTT DNA 2: AACCGGAAAACCCACATGACTGAGGTCTTCCGGTGG | 7470 PBM fluorescence, median of replicate spots
42 | Table S4 A row 1194 (dsDNA) DNA 1: TCGGAACAGTGACTTCCGGCGGAAGAAGAAGCCGGT DNA 2: ACCGGCTTCTTCTTCCGCCGGAAGTCACTGTTCCGA | 32500 PBM fluorescence, median of replicate spots
